Laboratory results: patent US20040253689A1

Experiments:
Experiment in all cases: cell-based or functional assay
[1] = target: 6m-hIGFBP-3 (I56A, Y57A, R75A, L77A, L80A, L81A mutant CHO-hIGFBP-3) (human) (UniProt P17936)
[2] = target: wild-type CHO-hIGFBP-3 (6xHis/Xpress/enterokinase-tagged mature human IGFBP-3 expressed in CHO-K1 cells from pRSV-Sec-BP3) (human) (UniProt P17936)
[3] = target: recombinant hIGFBP-3 standard (R&D Systems; synthesized in NSO mouse myeloma cells) (human) (UniProt P17936)
Chain of recombinant hIGFBP-3 standard (R&D Systems; synthesized in NSO mouse myeloma cells) (human) (P17936 28-291 limits assumed): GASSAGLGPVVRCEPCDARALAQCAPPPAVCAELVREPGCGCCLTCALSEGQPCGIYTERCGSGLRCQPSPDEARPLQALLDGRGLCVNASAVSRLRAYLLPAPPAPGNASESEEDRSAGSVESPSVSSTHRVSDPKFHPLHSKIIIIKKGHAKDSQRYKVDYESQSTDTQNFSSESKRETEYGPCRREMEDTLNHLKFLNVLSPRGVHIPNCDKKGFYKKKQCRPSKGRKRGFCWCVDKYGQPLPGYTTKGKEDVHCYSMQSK

Chain of wild-type CHO-hIGFBP-3 (6xHis/Xpress/enterokinase-tagged mature human IGFBP-3 expressed in CHO-K1 cells from pRSV-Sec-BP3) (human) (P17936 other isoform, or with tags, fused parts or gaps limits assumed): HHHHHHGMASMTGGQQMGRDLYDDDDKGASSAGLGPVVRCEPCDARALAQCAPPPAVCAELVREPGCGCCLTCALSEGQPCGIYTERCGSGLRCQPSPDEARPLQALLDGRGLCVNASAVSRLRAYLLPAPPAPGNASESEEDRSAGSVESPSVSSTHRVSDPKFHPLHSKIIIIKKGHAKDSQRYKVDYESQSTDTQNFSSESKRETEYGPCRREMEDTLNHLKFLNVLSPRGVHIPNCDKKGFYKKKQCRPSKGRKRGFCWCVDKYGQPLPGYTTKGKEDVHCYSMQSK
Chain of 6m-hIGFBP-3 (I56A, Y57A, R75A, L77A, L80A, L81A mutant CHO-hIGFBP-3) (human) (P17936 other isoform, or with tags, fused parts or gaps I56A Y57A R75A L77A L80A L81A I56A Y57A R75A L77A L80A L81A): as the sequence (P17936 other isoform, or with tags, fused parts or gaps limits assumed) above, with I83A, Y84A, R102A, L104A, L107A, L108A counted along it

Substance: Leu^60-IGF-I (IGF-I analogue in which leucine is substituted for tyrosine at position 60; expressed in Escherichia coli) (from UniProt P05019 49-118) (ligand)
- percentage of floating PC-3 cells that were dead, with Leu^60-IGF-I [1]: 80%
- percentage of floating PC-3 cells that were dead, without Leu^60-IGF-I [1]: 86%
- percentage of floating PC-3 cells that were dead, with Leu^60-IGF-I [2]: 14%
- percentage of floating PC-3 cells that were dead, without Leu^60-IGF-I [2]: 82%
- percentage of floating PC-3 cells that were dead, with Leu^60-IGF-I [3]: 14%
- percentage of floating PC-3 cells that were dead, without Leu^60-IGF-I [3]: 82%
